Source: publication PMC9482650, “Quantitative fragmentomics allow affinity mapping of interactomes” (Nature Communications, 2022)

Key:
Assay in all cases: holdup assay
Parameters in all cases: key: below the threshold = too weak to quantify, mostly under pKd 3.1 to 4
Conditions in all cases: plain residues with an end cap or a label only (N-terminal biotin on a linker: ttds)
[1] = target: T1, PDZD2_1, O15018
T1 sequence (O15018 80-192, limits assumed, looked up): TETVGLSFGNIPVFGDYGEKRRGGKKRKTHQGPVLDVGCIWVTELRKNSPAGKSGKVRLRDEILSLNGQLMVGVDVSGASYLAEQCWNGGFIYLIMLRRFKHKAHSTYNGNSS

[2] = target: T2, PTPN13_4, Q12923
T2 sequence (Q12923 1783-1878, limits assumed, looked up): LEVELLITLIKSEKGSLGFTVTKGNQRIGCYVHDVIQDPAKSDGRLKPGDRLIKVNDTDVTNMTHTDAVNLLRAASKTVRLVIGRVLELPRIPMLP

[3] = target: PREX1_1, Q8TCU6
[4] = target: CNKSR3, Q6P9H4
[5] = target: T3, MAGI2_1, Q86UL8
T3 sequence (Q86UL8 12-111, limits assumed, looked up): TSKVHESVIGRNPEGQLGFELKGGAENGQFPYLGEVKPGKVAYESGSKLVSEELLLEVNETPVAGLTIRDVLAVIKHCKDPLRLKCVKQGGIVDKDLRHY

[6] = target: T4, PDZD8, Q8NEN9
T4 sequence (Q8NEN9 361-459, limits assumed, looked up): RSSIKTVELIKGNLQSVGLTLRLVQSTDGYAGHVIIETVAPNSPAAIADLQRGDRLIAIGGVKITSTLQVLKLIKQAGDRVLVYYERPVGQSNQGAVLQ

[7] = target: T5, MLLT4, P55196
T5 sequence (P55196 1002-1103, limits assumed, looked up): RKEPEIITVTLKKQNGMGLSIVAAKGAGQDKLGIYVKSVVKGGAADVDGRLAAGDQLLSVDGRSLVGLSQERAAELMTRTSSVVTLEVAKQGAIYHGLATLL

[8] = target: T6, PARD6B, Q9BYG5
T6 sequence (Q9BYG5 152-260, limits assumed, looked up): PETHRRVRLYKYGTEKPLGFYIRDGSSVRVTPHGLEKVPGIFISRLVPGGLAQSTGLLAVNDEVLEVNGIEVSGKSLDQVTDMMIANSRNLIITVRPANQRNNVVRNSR

[9] = target: PDZRN4_2, Q6ZMN7
[10] = target: MAGI1_3, Q96QZ7
[11] = target: MAGI3_4, Q5TCQ9
[12] = target: T7, SYNPO2L, Q9H987
T7 sequence (Q9H987 1-98, limits assumed, looked up): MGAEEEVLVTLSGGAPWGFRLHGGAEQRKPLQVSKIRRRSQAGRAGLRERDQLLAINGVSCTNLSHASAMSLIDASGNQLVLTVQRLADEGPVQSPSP

[13] = target: GRIP2_2, Q9C0E4
[14] = target: T8, SNTB2, Q13425
T8 sequence (Q13425 110-208, limits assumed, looked up): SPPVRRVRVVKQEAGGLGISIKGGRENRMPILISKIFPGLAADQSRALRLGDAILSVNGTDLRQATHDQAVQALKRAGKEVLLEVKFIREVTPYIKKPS

[15] = target: T9, MPDZ_3, O75970
T9 sequence (O75970 372-473, limits assumed, looked up): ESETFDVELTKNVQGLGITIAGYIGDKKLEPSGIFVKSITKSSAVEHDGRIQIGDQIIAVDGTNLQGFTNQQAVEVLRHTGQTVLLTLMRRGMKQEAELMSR

[16] = target: T10, PDZD7_1, Q9H5P4
T10 sequence (Q9H5P4 81-178, limits assumed, looked up): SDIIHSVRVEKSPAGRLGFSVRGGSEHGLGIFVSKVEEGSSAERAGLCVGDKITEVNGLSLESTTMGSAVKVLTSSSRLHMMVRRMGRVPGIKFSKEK

[17] = target: T11, LNX2_4, Q8N448
T11 sequence (Q8N448 595-690, limits assumed, looked up): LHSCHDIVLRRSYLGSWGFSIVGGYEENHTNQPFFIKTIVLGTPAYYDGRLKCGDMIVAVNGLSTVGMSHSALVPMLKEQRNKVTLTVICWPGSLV

[18] = target: T12, APBA3_2, O96018
T12 sequence (O96018 480-570, limits assumed, looked up): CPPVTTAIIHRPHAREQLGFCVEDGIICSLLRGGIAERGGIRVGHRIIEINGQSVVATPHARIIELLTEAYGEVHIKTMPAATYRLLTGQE

[19] = target: T13, GRIP1_1, Q9Y3R0
T13 sequence (Q9Y3R0 48-146, limits assumed, looked up): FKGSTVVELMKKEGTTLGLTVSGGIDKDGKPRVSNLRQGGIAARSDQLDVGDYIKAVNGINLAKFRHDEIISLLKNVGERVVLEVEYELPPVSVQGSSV

[20] = target: T14, PDZD7_2, Q9H5P4
T14 sequence (Q9H5P4 205-303, limits assumed, looked up): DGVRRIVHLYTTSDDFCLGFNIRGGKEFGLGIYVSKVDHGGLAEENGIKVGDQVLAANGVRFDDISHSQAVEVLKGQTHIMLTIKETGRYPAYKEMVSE

[21] = target: MAGI1_6, Q96QZ7
[22] = target: CARD14, Q9BXL6
[23] = target: TJP1_1, Q07157
TJP1_1, Q07157, sequence (Q07157 18-120): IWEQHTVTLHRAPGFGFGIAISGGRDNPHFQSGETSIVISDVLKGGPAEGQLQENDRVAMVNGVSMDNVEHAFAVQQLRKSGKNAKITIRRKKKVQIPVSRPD

PDZRN4_2, Q6ZMN7, sequence (Q6ZMN7 389-498): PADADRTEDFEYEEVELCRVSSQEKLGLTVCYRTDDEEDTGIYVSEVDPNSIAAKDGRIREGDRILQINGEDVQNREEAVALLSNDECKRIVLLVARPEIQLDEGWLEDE
GRIP2_2, Q9C0E4, sequence (Q9C0E4 137-245): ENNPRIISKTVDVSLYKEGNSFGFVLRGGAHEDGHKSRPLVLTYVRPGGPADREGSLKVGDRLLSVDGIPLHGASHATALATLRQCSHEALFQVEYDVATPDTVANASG
PREX1_1, Q8TCU6, sequence (Q8TCU6 608-718): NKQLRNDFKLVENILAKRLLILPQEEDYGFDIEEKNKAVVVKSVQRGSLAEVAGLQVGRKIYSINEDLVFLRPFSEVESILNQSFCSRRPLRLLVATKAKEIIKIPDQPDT
MAGI3_4, Q5TCQ9, sequence (Q5TCQ9 716-815): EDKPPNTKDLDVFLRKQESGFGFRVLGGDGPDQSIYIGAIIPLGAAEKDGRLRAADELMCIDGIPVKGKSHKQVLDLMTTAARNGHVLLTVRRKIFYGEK
CARD14, Q9BXL6, sequence (Q9BXL6 558-663): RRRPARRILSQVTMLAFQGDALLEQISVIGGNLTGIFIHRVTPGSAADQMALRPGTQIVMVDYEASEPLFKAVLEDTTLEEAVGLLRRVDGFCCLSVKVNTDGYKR
MAGI1_3, Q96QZ7, sequence (Q96QZ7 638-725): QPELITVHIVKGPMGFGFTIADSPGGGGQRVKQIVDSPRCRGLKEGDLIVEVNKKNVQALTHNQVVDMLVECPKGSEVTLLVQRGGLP
CNKSR3, Q6P9H4, sequence (Q6P9H4 203-303): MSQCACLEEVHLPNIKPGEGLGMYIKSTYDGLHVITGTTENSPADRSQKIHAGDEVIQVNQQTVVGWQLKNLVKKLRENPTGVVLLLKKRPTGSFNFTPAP
MAGI1_6, Q96QZ7, sequence (Q96QZ7 1146-1238): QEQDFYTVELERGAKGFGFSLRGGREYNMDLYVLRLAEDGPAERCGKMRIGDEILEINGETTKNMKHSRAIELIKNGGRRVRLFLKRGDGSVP

pKd [1]: below the threshold
pKd [2]: below the threshold
pKd [3]: below the threshold
pKd [4]: below the threshold
pKd [5]: 3.74
pKd [6]: below the threshold
pKd [7]: below the threshold
pKd [8]: below the threshold
pKd [9]: below the threshold
pKd [10]: below the threshold
pKd [11]: below the threshold
pKd [12]: below the threshold
pKd [13]: 4.25
pKd [14]: 3.94
pKd [15]: below the threshold
pKd [16]: below the threshold
pKd [17]: below the threshold
pKd [18]: below the threshold
pKd [19]: below the threshold
pKd [20]: below the threshold
pKd [21]: below the threshold
pKd [22]: below the threshold
pKd [23]: below the threshold
B1: RALBP1, Q15311 (peptide)
chain: PSRDRKETSI
